Experimental data published in publication PMC3617137 (2013).

Molecular target: T1, microtubules (alpha/beta-tubulin) (Sus scrofa, UniProt P02550)
T1 chain 1: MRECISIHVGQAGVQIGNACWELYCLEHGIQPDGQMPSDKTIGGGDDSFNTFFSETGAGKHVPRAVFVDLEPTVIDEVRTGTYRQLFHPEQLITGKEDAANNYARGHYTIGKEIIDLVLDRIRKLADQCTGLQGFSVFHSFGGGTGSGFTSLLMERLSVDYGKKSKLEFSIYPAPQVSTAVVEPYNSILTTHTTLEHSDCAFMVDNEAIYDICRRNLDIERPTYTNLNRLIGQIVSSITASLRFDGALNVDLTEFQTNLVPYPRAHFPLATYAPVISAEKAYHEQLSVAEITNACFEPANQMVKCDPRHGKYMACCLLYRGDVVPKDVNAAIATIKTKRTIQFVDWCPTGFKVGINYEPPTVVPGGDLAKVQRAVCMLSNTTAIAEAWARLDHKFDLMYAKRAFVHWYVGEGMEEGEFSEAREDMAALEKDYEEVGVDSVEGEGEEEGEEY
T1 chain 2: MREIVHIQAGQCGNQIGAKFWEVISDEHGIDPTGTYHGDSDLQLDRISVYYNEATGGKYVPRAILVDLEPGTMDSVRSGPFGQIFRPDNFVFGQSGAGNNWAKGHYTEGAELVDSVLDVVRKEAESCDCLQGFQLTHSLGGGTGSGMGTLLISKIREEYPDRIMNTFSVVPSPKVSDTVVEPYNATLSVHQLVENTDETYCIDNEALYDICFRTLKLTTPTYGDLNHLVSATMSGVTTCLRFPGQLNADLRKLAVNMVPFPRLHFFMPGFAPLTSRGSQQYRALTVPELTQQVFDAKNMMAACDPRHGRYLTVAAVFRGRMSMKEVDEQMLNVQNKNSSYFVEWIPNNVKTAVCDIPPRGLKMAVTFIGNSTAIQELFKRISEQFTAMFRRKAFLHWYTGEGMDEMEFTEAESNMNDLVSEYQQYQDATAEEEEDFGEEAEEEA
Experiment: microtubule co-sedimentation

Kd: 250 nM
B1: Mars (MBP-N-Mars) 1-430 (protein)
chain: MQRHKELYKEQSLVLSPRNHCQENRDRLQAARAKKREDCFYQNRIISVSPTPVKIKQLAAAQAALTQENVAPKLESPERLDTKPAELLKESNPKVSRQKLYLQRYMEWKIAKTKEHKQQDQKRRGAAINVPTVKQSKALPKSQTFRVPDNLASAKQKEAAPMFQPPKRCSLYMIANPTGKGKAAEPIKPSIPKPTSAAAPPSSNTVAASSALARHKSAASATKIVPAIRQNNNPVALARQKAAARPIPNTTKQTTSVRQPGIEAKKITTTIPRPTPATVTKAKTPGIRQQPPVVSTKPRLPEPPAPRTARLPNVLSKPFEKPLGNKAPVTRRANVVKPQPIRGGGGAAAKFKDTAGATSKAASHSIRMKATKIKSQYTRLQDNVRKLPQLKAELLHAATLDIPPLTPLDDIHNPFIDQATSTQCKSNNSS
modifications: MBP fusion, taxol-stabilized GMPPNP/GDP-NP microtubules
